Source: PMC8930772, “Seipin forms a flexible cage at lipid droplet formation sites” (Nature Structural & Molecular Biology, 2022)

Assays:
[1] = target: the molecule itself; assay: negative-stain EM; WT lumenal domain oligomers from the SEC, 2D class averages
[2] = target: the molecule itself; assay: cryo-EM structure; purified Sei1-Ldb16 complex reconstituted in amphipol PmalC8, about 3.5 mg/ml; negative stain and cryo-EM; C10 then C5 symmetry

B1: seipin lumenal domain WT(47-235) with C-terminal 6xHis (domain or fragment, S. cerevisiae, UniProt Q06058 47-235, looked up)
chain: ADSSNVVPLNTFNILNGVQFGTKFFQSIKSIPVGTDLPQTIDNGLSQLIPMRDNMEYKLDLNLQLYCQSKTDHLNLDNLLIDVYRGPGPLLGAPGGSNSKDEKIFHTSRPIVCLALTDSMSPQEIEQLGPSRLDVYDEEWLNTIRIEDKISLESSYETISVFLKTEIAQRNLIIHPESGIKFRMNFEQG
notes: seipin Sei1, S. cerevisiae, lumenal domain lacking the TM segments, residues 47-235; also called WT lumenal domain; source: E. coli SHuffle T7 Express, purified (Ni-NTA), isolated in the absence of detergent; copies: 10
B1 was tested, and the “stoichiometry N” value [1] was 10.

B2: yeast seipin Sei1 with C-terminal 3xFLAG-TEV-2xProteinA tag, purified from strain HAY60 (natural protein, S. cerevisiae, UniProt Q06058 1-285, looked up)
chain: MKINVSRPLQFLQWSSYIVVAFLIQLLIILPLSILIYHDFYLRLLPADSSNVVPLNTFNILNGVQFGTKFFQSIKSIPVGTDLPQTIDNGLSQLIPMRDNMEYKLDLNLQLYCQSKTDHLNLDNLLIDVYRGPGPLLGAPGGSNSKDEKIFHTSRPIVCLALTDSMSPQEIEQLGPSRLDVYDEEWLNTIRIEDKISLESSYETISVFLKTEIAQRNLIIHPESGIKFRMNFEQGLRNLMLRKRFLSYIIGISIFHCIICVLFFITGCTAFIFVRKGQEKSKKHS
notes: seipin Sei1 (Fld1), S. cerevisiae; tagged at the endogenous locus; The 2xProteinA part held the protein on IgG Sepharose and was cut off with TEV protease before SEC and cryo-EM; The deposited model holds residues 17-264 without 134-147; also called Fld1; source: S. cerevisiae strain HAY60, overproduced from the GAL1 promoter at the endogenous locus; purified (IgG Sepharose, TEV cleavage, …)
B2 was tested, and the “stoichiometry N” value [2] was 10.
